In this series the target is Indicator molecule containing the cleavable sequence GPQGIFGQ with a terminal biotin group connected via a polyethylene glycol spacer/linker (intact, Examples 1-6).

B1: MMP7 (Enzo) (protein)
chain: YSLFPNSPKWTSKVVTYRIVSYTRDLPHITVDRLVSKALNMWGKEIPLHFRKVVWGTADIMIGFARGAHGDSYPFDGPGNTLAHAFAPGTGLGGDAHFDEDERWTDGSSLGINFLYAATHELGHSLGMGHSSDPNAVMYPTYGNGDPQNFKLSQDDIKGIQKLYGKRSNSRKK
Protein B1 registered a Reader value (lateral flow, CF1522-gold) with MMP at 0.5 ug/ml of 373 reader units.

B2: MMP11 (Enzo) (protein)
chain: FVLSGGRWEKTDLTYRILRFPWQLVQEQVRQTMAEALKVWSDVTPLTFTEVHEGRADIMIDFARYWHGDDLPFDGPGGILAHAFFPKTHREGDVHFDYDETWTIGDDQGTDLLQVAAHEFGHVLGLQHTTAAKALMSAFYTFRYPLSLSPDDCRGVQHLYGQPWPTVTSRTPALG
In the case of B2, the Reader value (lateral flow, CF1522-gold) with MMP at 0.5 ug/ml came out at 280 reader units.

B3: MMP1 (Enzo) (protein)
chain: FVLTEGNPRWEQTHLTYRIENYTPDLPRADVDHAIEKAFQLWSNVTPLTFTKVSEGQADIMISFVRGDHRDNSPFDGPGGNLAHAFQPGPGIGGDAHFDEDERWTNNFREYNLHRVAAHELGHSLGLSHSTDIGALMYPSYTFSGDVQLAQDDIDGIQAIYGRSQNPVQP
For B3, the Reader value (lateral flow, CF1522-gold) with MMP at 0.5 ug/ml was 478 reader units.

B4: MMP12 (Enzo) (protein)
chain: GPVWRKHYITYRINNYTPDMNREDVDYAIRKAFQVWSNVTPLKFSKINTGMADILVVFARGAHGDFHAFDGKGGILAHAFGPGSGIGGDAHFDEDEFWTTHSGGTNLFLTAVHEIGHSLGLGHSSDPKAVMFPTYKYVDINTFRLSADDIRGIQSLYG
Take B4: the Reader value (lateral flow, CF1522-gold) with MMP at 0.5 ug/ml turned out to be 1250 reader units.
